PMC3655159 (Journal of molecular biology, 2013)

Molecular target: the molecule itself
Experiment: SDS-PAGE under mildly denaturing conditions

B1: gB730 L700G/L711G (domain or fragment)
chain: not shown
stoichiometry N: 3
